Source: patent US20200199213A1 (Eli Lilly, published 2020)
Read-outs that look alike come from different tables or passages of the source. Values belong to the binder of their own block, whether it stands above or below them.

Legend:
Test in all cases: SPR, Biacore T200; Ab captured on Human Fab Binder, complex injected; pH 7.4, 25 C
[1] = biological target: T1, cynomolgus ANGPTL3/8 complex (cynomolgus, UniProt A0A2K5UDC5 17-460; A0A2K5WWS3 22-198)
T1 construct: also called cyno ANGPTL3/8
T1 sequence 1: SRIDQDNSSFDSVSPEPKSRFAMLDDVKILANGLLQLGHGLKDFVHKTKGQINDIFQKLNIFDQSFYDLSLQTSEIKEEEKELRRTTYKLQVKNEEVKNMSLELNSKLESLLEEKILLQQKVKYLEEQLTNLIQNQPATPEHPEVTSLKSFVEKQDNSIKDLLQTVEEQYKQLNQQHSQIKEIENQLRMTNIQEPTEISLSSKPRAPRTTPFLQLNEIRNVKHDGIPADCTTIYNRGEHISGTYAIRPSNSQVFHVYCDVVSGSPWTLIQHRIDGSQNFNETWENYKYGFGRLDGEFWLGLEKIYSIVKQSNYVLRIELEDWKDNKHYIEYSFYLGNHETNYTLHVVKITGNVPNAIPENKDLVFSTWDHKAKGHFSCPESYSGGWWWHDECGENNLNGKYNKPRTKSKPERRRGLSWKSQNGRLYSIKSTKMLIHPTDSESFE
T1 sequence 2: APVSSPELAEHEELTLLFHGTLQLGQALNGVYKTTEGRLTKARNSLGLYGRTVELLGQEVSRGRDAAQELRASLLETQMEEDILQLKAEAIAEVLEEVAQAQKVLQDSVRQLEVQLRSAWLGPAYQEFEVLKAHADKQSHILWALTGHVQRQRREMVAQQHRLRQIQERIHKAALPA

mouse ANGPTL3/8 complex [2] = biological target: T2, mouse ANGPTL3/8 complex (mouse, UniProt Q9R182 17-455; Q8R1L8 16-198, limits assumed)
T2 sequence (looked up) 1: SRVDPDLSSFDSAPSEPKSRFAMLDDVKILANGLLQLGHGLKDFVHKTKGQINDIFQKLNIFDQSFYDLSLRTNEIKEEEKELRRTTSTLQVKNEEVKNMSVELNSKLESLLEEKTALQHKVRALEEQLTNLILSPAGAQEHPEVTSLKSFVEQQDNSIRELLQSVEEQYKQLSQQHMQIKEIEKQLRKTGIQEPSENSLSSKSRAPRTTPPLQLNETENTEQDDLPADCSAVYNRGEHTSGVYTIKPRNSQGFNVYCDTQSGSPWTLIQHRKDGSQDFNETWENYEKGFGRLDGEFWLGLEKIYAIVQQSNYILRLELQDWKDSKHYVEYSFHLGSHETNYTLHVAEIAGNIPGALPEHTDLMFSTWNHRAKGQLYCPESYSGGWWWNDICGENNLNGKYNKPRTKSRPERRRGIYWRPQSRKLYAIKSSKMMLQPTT
T2 sequence (looked up) 2: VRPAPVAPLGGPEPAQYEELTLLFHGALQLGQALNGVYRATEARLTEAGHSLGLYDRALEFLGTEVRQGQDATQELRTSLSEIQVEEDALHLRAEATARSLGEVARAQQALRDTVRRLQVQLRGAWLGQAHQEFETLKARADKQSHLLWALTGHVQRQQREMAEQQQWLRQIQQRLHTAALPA

[3] = biological target: T1, cynomolgus ANGPTL3/8 complex; remark: listed apart in the source
human ANGPTL3/8 complex [4] = biological target: T3, human ANGPTL3/8 complex (human, UniProt Q9Y5C1 17-460; Q6UXH0 22-198, limits assumed)
T3 construct: also called hANGPTL3/8 complex; ANGTPL3/8 complex
T3 sequence 1: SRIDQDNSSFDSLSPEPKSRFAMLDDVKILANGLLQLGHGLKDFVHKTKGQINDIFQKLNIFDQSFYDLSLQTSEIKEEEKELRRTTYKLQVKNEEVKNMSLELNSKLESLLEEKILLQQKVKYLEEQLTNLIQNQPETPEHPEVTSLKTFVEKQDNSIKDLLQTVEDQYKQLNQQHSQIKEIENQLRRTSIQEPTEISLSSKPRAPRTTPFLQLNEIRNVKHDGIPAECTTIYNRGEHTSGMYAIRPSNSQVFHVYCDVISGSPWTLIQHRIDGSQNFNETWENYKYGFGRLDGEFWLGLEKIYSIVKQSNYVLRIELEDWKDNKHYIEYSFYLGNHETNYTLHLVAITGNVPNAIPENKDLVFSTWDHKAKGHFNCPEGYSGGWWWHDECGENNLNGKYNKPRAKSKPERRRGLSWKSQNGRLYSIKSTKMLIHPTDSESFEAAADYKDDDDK
T3 sequence 2: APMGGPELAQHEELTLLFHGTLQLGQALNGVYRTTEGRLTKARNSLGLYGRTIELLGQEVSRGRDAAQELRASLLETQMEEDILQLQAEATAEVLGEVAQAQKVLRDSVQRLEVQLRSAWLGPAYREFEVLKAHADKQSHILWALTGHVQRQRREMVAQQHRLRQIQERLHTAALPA

mouse ANGPTL3/8 complex [5] = biological target: T2, mouse ANGPTL3/8 complex; remark: listed apart in the source
[6] = biological target: T1, cynomolgus ANGPTL3/8 complex; remark: listed apart in the source
human ANGPTL3/8 complex [7] = biological target: T3, human ANGPTL3/8 complex; remark: listed apart in the source
mouse ANGPTL3/8 complex [8] = biological target: T2, mouse ANGPTL3/8 complex; remark: listed apart in the source

- Kd [1]: 365 pM
- koff [1]: 0.000168 s⁻¹
- kon [1]: 462000 M⁻¹ s⁻¹
- Kd (mouse ANGPTL3/8 complex [2]): 218 pM
- koff (mouse ANGPTL3/8 complex [2]): 0.000108 s⁻¹
- kon (mouse ANGPTL3/8 complex [2]): 496000 M⁻¹ s⁻¹
B1: Ab with LC variant having a D31S mutation (SEQ ID NO:21) and a HC of SEQ ID NO:6 (antibody, human IgG4 S228P, kappa, F234A L235A, V domains shown)
VH: QVTLKESGPTLVKPTQTLTLTCTFSGFSLSISGVGVGWIRQPPGKALEWLALIYRNDDKRYSPSLKSRLTITKDTSKNQVVLTLTNMDPVDTATYYCARTYSSGWYGNWFDPWGQGTLVTVSS
VL: DIVMTQTPLSLPVTPGEPASISCRSSQSLLSSDDGNTYLDWYLQKPGQSPQLLIYMLSYRASGVPDRFSGSGSGTDFTLKISRVEAEDVGIYYCMQRIEFPLTFGGGTKVEIKR
notes: also called D31S Variant Ab; D31S Ab

- Kd [3]: 116 pM
- koff [3]: 7.23e-05 s⁻¹
- kon [3]: 620000 M⁻¹ s⁻¹
- Kd (human ANGPTL3/8 complex [4]): 48.4 pM
- koff (human ANGPTL3/8 complex [4]): 3.26e-05 s⁻¹
- kon (human ANGPTL3/8 complex [4]): 674000 M⁻¹ s⁻¹
- Kd (mouse ANGPTL3/8 complex [5]): 254 pM
- koff (mouse ANGPTL3/8 complex [5]): 0.000151 s⁻¹
- kon (mouse ANGPTL3/8 complex [5]): 596000 M⁻¹ s⁻¹
B2: Ab with LC variant having a E99Q mutation (SEQ ID NO:25) and a HC of SEQ ID NO:6 (antibody, human IgG4 S228P, kappa, F234A L235A, V domains shown)
VH: QVTLKESGPTLVKPTQTLTLTCTFSGFSLSISGVGVGWIRQPPGKALEWLALIYRNDDKRYSPSLKSRLTITKDTSKNQVVLTLTNMDPVDTATYYCARTYSSGWYGNWFDPWGQGTLVTVSS
VL: DIVMTQTPLSLPVTPGEPASISCRSSQSLLDSDDGNTYLDWYLQKPGQSPQLLIYMLSYRASGVPDRFSGSGSGTDFTLKISRVEAEDVGIYYCMQRIQFPLTFGGGTKVEIKR
notes: also called E99Q Variant Ab; E99Q Ab

- Kd [6]: 609 pM
- koff [6]: 0.000265 s⁻¹
- kon [6]: 435000 M⁻¹ s⁻¹
- Kd (human ANGPTL3/8 complex [7]): 201 pM
- koff (human ANGPTL3/8 complex [7]): 9.19e-05 s⁻¹
- kon (human ANGPTL3/8 complex [7]): 457000 M⁻¹ s⁻¹
- Kd (mouse ANGPTL3/8 complex [8]): 680 pM
- koff (mouse ANGPTL3/8 complex [8]): 0.000347 s⁻¹
- kon (mouse ANGPTL3/8 complex [8]): 515000 M⁻¹ s⁻¹
B3: Ab with LC variant having a D33A mutation (SEQ ID NO:22) and a HC of SEQ ID NO:6 (antibody, human IgG4 S228P, kappa, F234A L235A, V domains shown)
VH: QVTLKESGPTLVKPTQTLTLTCTFSGFSLSISGVGVGWIRQPPGKALEWLALIYRNDDKRYSPSLKSRLTITKDTSKNQVVLTLTNMDPVDTATYYCARTYSSGWYGNWFDPWGQGTLVTVSS
VL: DIVMTQTPLSLPVTPGEPASISCRSSQSLLDSADGNTYLDWYLQKPGQSPQLLIYMLSYRASGVPDRFSGSGSGTDFTLKISRVEAEDVGIYYCMQRIEFPLTFGGGTKVEIKR
notes: also called D33A Variant Ab; D33A Ab
